Positions count from the first letter of the chain named.

The source of these data is US20230192831A1.

The target in test [1] is recombinant human GREM1 (hGREM1-His; C-terminal 10His tagged, R&D, #5190-GR) (human) (UniProt O60565). As to the kind of experiment: cell-based or functional assay.
The target is the same in test [2]. In words: BLI Octet, captured mAb, 100 nM GREM1.
The target is the same in test [3]. As to the kind of experiment: BLI Octet, captured mAb, 100 nM GREM1 + 5 uM heparin. For orientation: Biolayer interferometry detects binding as a change in optical thickness at a sensor tip.
For test [4] the target is unchanged. As to the kind of experiment: BLI Octet, captured mAb, 100 nM GREM1 without vs with 5 uM heparin.

Chain of recombinant human GREM1 (hGREM1-His; C-terminal 10His tagged, R&D, #5190-GR) (human) (O60565 other isoform, or with tags, fused parts or gaps limits assumed, form in doubt): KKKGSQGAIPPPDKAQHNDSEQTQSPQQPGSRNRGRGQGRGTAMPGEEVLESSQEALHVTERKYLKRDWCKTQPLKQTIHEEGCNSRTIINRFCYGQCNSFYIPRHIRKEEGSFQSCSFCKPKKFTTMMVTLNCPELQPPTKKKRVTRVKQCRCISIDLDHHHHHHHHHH

B1: H4H6260P (antibody, human IgG4, V domains shown)
VH: QVQLVESGGGVVQPGRSLRLSCAASGFTFSTYGMHWVRQAPGKGLEWVAIIWYDGSNYYYADSVKGRFTISRDNSKNTLYLQMNSLRAEDTAVYYCAREDRNDVFDIWGQGTMVTVSS
VL: EIVLTQSPATLSLSPGERATLSCRASQSVSSFLAWYQQKPGQAPRLLIYDSSNRATGIPARFSGSGSGTDFTLTISSLEPEDFAVYYCQQLSNWPPITFGQGTRLEIK
For B1, in test [1], the IC50 [M], W-20-17/BRE-luc luciferase bioassay, 100 pM hBMP4 and 10 nM hGREM1-His amounted to 4.6e-10 M; the hGREM1-His Inhibition IC50, M; W-20-17 cell differentiation assay (alkaline phosphatase) stood at 3.3 nM. Further, in test [2], the Binding Signal with 30 sec Association (nm) stood at 0.24 nm and the Binding Signal with 300 sec Association (nm) was 0.42 nm. In test [3], the Binding Signal with 30 sec Association (nm) was 0.07 nm and the Binding Signal with 300 sec Association (nm) amounted to 0.37 nm. Besides, in test [4], the Reduction in Signal from Heparin at 30 sec came to 0.17 nm and the Reduction in Signal from Heparin at 300 sec was found to be 0.05 nm.

B2: H4H6246P (antibody, human IgG4, V domains shown)
VH: QVQLVESGGGVVQPGRSLRLSCAASGFTFSSYGMHWVRQAPGKGLEWVAIIWYDGSNRYYADSVKGRFTISRDNSRNTLYLQMNSLRAEDTAVYYCARDEYGDYDYPFDYWGQGTLVTVSS
VL: DIQMTQSPSSLSASVGDRVTITCRASQGIRNDLGWFQQKPGKAPKRLIYAASSLQSGVPSRFSGSGSGTEFTLTISSLQPEDFATYYCLQHNTYPPFTFGPGTKVDIK
As for B2, in test [1], the IC50 [M], W-20-17/BRE-luc luciferase bioassay, 100 pM hBMP4 and 10 nM hGREM1-His is 5.6e-10 M; the hGREM1-His Inhibition IC50, M; W-20-17 cell differentiation assay (alkaline phosphatase) amounted to 6.2 nM. Besides, in test [2], the Binding Signal with 30 sec Association (nm) turned out to be 0.19 nm and the Binding Signal with 300 sec Association (nm) was found to be 0.38 nm. Moreover, in test [3], the Binding Signal with 30 sec Association (nm) came to 0.06 nm and the Binding Signal with 300 sec Association (nm) is 0.34 nm. For the same molecule, in test [4], the Reduction in Signal from Heparin at 30 sec is 0.13 nm and the Reduction in Signal from Heparin at 300 sec worked out at 0.04 nm.

B3: H4H6252P (antibody, human IgG4, V domains shown)
VH: B2 VH with S31N, K43R, I50V, Y53F, R58K, R76K, A88S, A97T, E100D
VL: B2 VL with F36Y, H91Y
Turning to B3, in test [1], the IC50 [M], W-20-17/BRE-luc luciferase bioassay, 100 pM hBMP4 and 10 nM hGREM1-His stood at 8.2e-10 M; the hGREM1-His Inhibition IC50, M; W-20-17 cell differentiation assay (alkaline phosphatase) was found to be 6.1 nM. For the same molecule, in test [2], the Binding Signal with 30 sec Association (nm) is 0.23 nm and the Binding Signal with 300 sec Association (nm) stood at 0.44 nm. For the same molecule, in test [3], the Binding Signal with 30 sec Association (nm) was determined as 0.04 nm and the Binding Signal with 300 sec Association (nm) was 0.35 nm. For the same molecule, in test [4], the Reduction in Signal from Heparin at 30 sec worked out at 0.19 nm and the Reduction in Signal from Heparin at 300 sec was determined as 0.09 nm.

B4: H4H6250P (antibody, human IgG4, V domains shown)
VH: B2 VH with S31N, I50V, R58K, N77K, V93I, A97T, E100D
VL: B2 VL with F36Y, S65T, T93S
Regarding B4, in test [1], the IC50 [M], W-20-17/BRE-luc luciferase bioassay, 100 pM hBMP4 and 10 nM hGREM1-His was found to be 4.4e-10 M; the hGREM1-His Inhibition IC50, M; W-20-17 cell differentiation assay (alkaline phosphatase) came to 12 nM. In test [2], the Binding Signal with 30 sec Association (nm) worked out at 0.2 nm and the Binding Signal with 300 sec Association (nm) turned out to be 0.37 nm. Besides, in test [3], the Binding Signal with 30 sec Association (nm) is 0.06 nm and the Binding Signal with 300 sec Association (nm) was 0.32 nm. Further, in test [4], the Reduction in Signal from Heparin at 30 sec was 0.14 nm and the Reduction in Signal from Heparin at 300 sec turned out to be 0.05 nm.

B5: H4H6240P (antibody, human IgG4, V domains shown)
VH: QVQLVESGGGVVQPGRSLRLSCAASGFTFSSYGMHWVRQAPGKGLEWVAVIWYDGSNKYYADSVKGRFIISRDNSKNMMYLQMNSLRAEDTAVYYCAREDNWNYAFDYWGQGTLVTVSS
VL: EIVMTQSPATLSVSPGERATLSCRASQSISSNLAWYQQKPGQAPRLLIYDSSTRATGIPARFSGSGSGTQFTLTISSLQSEDFALYYCQQYSNWPPFTFGPGTKVDIK
Turning to B5, in test [1], the IC50 [M], W-20-17/BRE-luc luciferase bioassay, 100 pM hBMP4 and 10 nM hGREM1-His is 8.1e-10 M; the hGREM1-His Inhibition IC50, M; W-20-17 cell differentiation assay (alkaline phosphatase) worked out at 7.8 nM. Besides, in test [2], the Binding Signal with 30 sec Association (nm) was 0.23 nm and the Binding Signal with 300 sec Association (nm) was found to be 0.53 nm. Further, in test [3], the Binding Signal with 30 sec Association (nm) stood at 0.05 nm and the Binding Signal with 300 sec Association (nm) was 0.37 nm. In test [4], the Reduction in Signal from Heparin at 30 sec came to 0.18 nm and the Reduction in Signal from Heparin at 300 sec came out at 0.16 nm.

B6: H4H6270P (antibody, human IgG4, V domains shown)
VH: QVQLVESGGDVVQPGRSLRLSCAASGFTFSSYGMHWVRQAPGKGLEWVAIIWNDGSNKYYTDSVKGRFTISRDNSKNTLYLQMNGLRAEDTAIYYCARDQDQFDYWGQGTLVTVSS
VL: B5 VL with S31T, Q37R, S51A, Q70D, L85V, F97Y, P101Q, V105L, D106E
Turning to B6, in test [1], the IC50 [M], W-20-17/BRE-luc luciferase bioassay, 100 pM hBMP4 and 10 nM hGREM1-His was 5.4e-10 M; the hGREM1-His Inhibition IC50, M; W-20-17 cell differentiation assay (alkaline phosphatase) was 3.1 nM. In addition, in test [2], the Binding Signal with 30 sec Association (nm) was found to be 0.2 nm and the Binding Signal with 300 sec Association (nm) came to 0.39 nm. For the same molecule, in test [3], the Binding Signal with 30 sec Association (nm) was determined as 0.05 nm and the Binding Signal with 300 sec Association (nm) stood at 0.33 nm. Further, in test [4], the Reduction in Signal from Heparin at 30 sec is 0.15 nm and the Reduction in Signal from Heparin at 300 sec was 0.06 nm.

B7: H4H6251P (antibody, human IgG4, V domains shown)
VH: QVQLVESGGGVVQPGKSLRLSCAASGFTFSRYGMHWVRQAPGKGLEWVAVIWYDGSNKYYADSVKGRFTISRDNSKNTLYLQMNSLRADDTAMYYCARDDYGDSPGFDFWGQGTLVTVSS
VL: B5 VL with I29V, S51A, S65T, Q70E, S92D, N93D, F97W, P101Q, D106E
As to B7, in test [1], the IC50 [M], W-20-17/BRE-luc luciferase bioassay, 100 pM hBMP4 and 10 nM hGREM1-His worked out at 6.3e-10 M; the hGREM1-His Inhibition IC50, M; W-20-17 cell differentiation assay (alkaline phosphatase) was found to be 11 nM. Moreover, in test [2], the Binding Signal with 30 sec Association (nm) was 0.27 nm and the Binding Signal with 300 sec Association (nm) came to 0.45 nm. In addition, in test [3], the Binding Signal with 30 sec Association (nm) was 0.03 nm and the Binding Signal with 300 sec Association (nm) came out at 0.36 nm. Further, in test [4], the Reduction in Signal from Heparin at 30 sec came out at 0.24 nm and the Reduction in Signal from Heparin at 300 sec worked out at 0.09 nm.

B8: H4H6248P (antibody, human IgG4, V domains shown)
VH: B7 VH with K16R, R31N, A40V, L86V, D89E, M93V, F109Y
VL: B5 VL with I29V, N32S, S51A, Q70E, S77G, L85V, S92N, F97W, P101Q, D106E
In the case of B8, in test [1], the IC50 [M], W-20-17/BRE-luc luciferase bioassay, 100 pM hBMP4 and 10 nM hGREM1-His is 5.3e-10 M; the hGREM1-His Inhibition IC50, M; W-20-17 cell differentiation assay (alkaline phosphatase) is 5.6 nM. Besides, in test [2], the Binding Signal with 30 sec Association (nm) was determined as 0.21 nm and the Binding Signal with 300 sec Association (nm) turned out to be 0.42 nm. Moreover, in test [3], the Binding Signal with 30 sec Association (nm) stood at 0.04 nm and the Binding Signal with 300 sec Association (nm) is 0.37 nm. In test [4], the Reduction in Signal from Heparin at 30 sec came out at 0.17 nm and the Reduction in Signal from Heparin at 300 sec came to 0.05 nm.

B9: H4H6243P (antibody, human IgG4, V domains shown)
VH: QVQLVQSGAEVKKPGASVKVSCKVSGYTLTELSMHWVRQAPGKGLEWMGGFDPEDGETIYAQKFQDRVTMTEDTSTDTAYMELSSLRSEDTAVYYCVTDDYEILPEYPYNMDVWGQGTTVTVSS
VL: DIQMTQSPSSLSASVGDRVTITCRASQSISTYLNWYQQKPGKAPKLLIYAASSLQSGVPSRFSGSGSGTDFTLTIRSLQPEDFATYYCQQSHITPFTFGPGTKVDIK
For B9, in test [1], the IC50 [M], W-20-17/BRE-luc luciferase bioassay, 100 pM hBMP4 and 10 nM hGREM1-His was 5.4e-10 M; the hGREM1-His Inhibition IC50, M; W-20-17 cell differentiation assay (alkaline phosphatase) was found to be 5.9 nM. Also, in test [2], the Binding Signal with 30 sec Association (nm) amounted to 0.3 nm and the Binding Signal with 300 sec Association (nm) came out at 0.47 nm. In addition, in test [3], the Binding Signal with 30 sec Association (nm) is 0 nm and the Binding Signal with 300 sec Association (nm) worked out at 0.21 nm. In addition, in test [4], the Reduction in Signal from Heparin at 30 sec was 0.3 nm and the Reduction in Signal from Heparin at 300 sec is 0.26 nm.

B10: H4H6245P (antibody, human IgG4, V domains shown)
VH: EVQLVESGGGLVQPGGSLRLSCAASGFTFNSFWMSWVRQAPGKGLEWVANIKQDGSEKYYVDSVKGRFTISRDNAKNSVYLQMNSLRAEDTAVYYCARDLVTSFDYWGQGTLVTVSS
VL: DIQMTQSPSSLSASVGDRVTITCQASQDINNYLNWYQQKPGKAPKLLIYDASYLETGVPSGFSGSGSGTDFTFTISSLQPEDIATYYCQQYDSLPYTFGQGTKLEIK
Consider B10, for which, in test [1], the IC50 [M], W-20-17/BRE-luc luciferase bioassay, 100 pM hBMP4 and 10 nM hGREM1-His was 5.3e-10 M; the hGREM1-His Inhibition IC50, M; W-20-17 cell differentiation assay (alkaline phosphatase) came to 6.1 nM. Also, in test [2], the Binding Signal with 30 sec Association (nm) was 0.23 nm and the Binding Signal with 300 sec Association (nm) was determined as 0.41 nm. Also, in test [3], the Binding Signal with 30 sec Association (nm) was found to be 0.02 nm and the Binding Signal with 300 sec Association (nm) was 0.22 nm. Moreover, in test [4], the Reduction in Signal from Heparin at 30 sec stood at 0.21 nm and the Reduction in Signal from Heparin at 300 sec is 0.19 nm.
